Molecular target: the molecule itself
Test: sedimentation velocity AUC, 150 mM NaCl, pH 6.0; self-association

B1: mouse galactocerebrosidase (mGalC), recombinant (enzyme)
chain: YVLDDSDGLGREFDGIGAVSGGGATSRLLVNYPEPYRSEILDYLFKPNFGASLHILKVEIGGDGQTTDGTEPSHMHYELDENYFRGYEWWLMKEAKKRNPDIILMGLPWSFPGWLGKGFSWPYVNLQLTAYYVVRWILGAKHYHDLDIDYIGIWNERPFDANYIKELRKMLDYQGLQRVRIIASDNLWEPISSSLLLDQELWKVVDVIGAHYPGTYTVWNAKMSGKKLWSSEDFSTINSNVGAGCWSRILNQNYINGNMTSTIAWNLVASYYEELPYGRSGLMTAQEPWSGHYVVASPIWVSAHTTQFTQPGWYYLKTVGHLEKGGSYVALTDGLGNLTIIIETMSHQHSMCIRPYLPYYNVSHQLATFTLKGSLREIQELQVWYTKLGTPQQRLHFKQLDTLWLLDGSGSFTLELEEDEIFTLTTLTTGRKGSYPPPPSSKPFPTNYKDDFNVEYPLFSEAPNFADQTGVFEYYMNNEDREHRFTLRQVLNQRPITWAADASSTISVIGDHHWTNMTVQCDVYIETPRSGGVFIAGRVNKGGILIRSATGVFFWIFANGSYRVTADLGGWITYASGHADVTAKRWYTLTLGIKGYFAFGMLNGTILWKNVRVKYPGHGWAAIGTHTFEFAQFDNFRVEAAR
notes: also called rmGALC; rmGalC
  binding result: binds

From patent US20130295071A1 (SHIRE HUMAN GENETIC THERAPIES, published 2013)
